Measurements as given in patent US9394371 (Scripps Research, dated 2016).

Experiments:
[1] = molecular target: T1, AIP-3 (S. aureus III native cyclic signaling peptide) (Staphylococcus aureus); experiment: competition ELISA on AP1-BSA
T1 construct: also called AIP3 wt; AIP-III

[2] = molecular target: AIP-1 (S. aureus I native cyclic signaling peptide) (Staphylococcus aureus); experiment: competition ELISA on AP1-BSA

| Binder | Kd [1] [µM] | Kd [2] [µM] |
| --- | --- | --- |
| AP1-15B4 (antibody, V domains shown, also called mAb AP1-15B4; AP1 Sups 15B4) VH: EVHLVESGGDLVKPGGSLKLSCAASGFAFSDFAMSWVRQTPEKRLEWVAIIKSDDSYTYYPDSVRDRFTISRDNARNTLYLQMTSLRSEDTALYYCTKIYDAYFYAMDYWGQGTSVTVSS VL: DIVRTQSPLSLSVSLGDQASISCRSSQSLLHSNGNTYLHWYLQKPGQSPKLLIYKVSNRFSGVPDRFSGSGSGTDFTLKISILEAEDLGIYFCSQSTHFPTFGGGTKLEIK | ~1 |  |
| 3B1 (antibody, V domains shown) VH: QVQLQESGPGLVKPSETLSLTCTVSGGSISSYYWSWIRQPPGKGLEWIGYIYYSGNTNSNPSLKSRVTISVDTSKNQFSLKLSSVTAADTAVYYCARTYYDSSGYYYRAFDIWGQGTMVTVSS VL: DIQMTQSPSSLSASEGDRVTITCRASQGIRNDLGWYQQKPGKAPKRLIYAASSLQSGVPLRFSGSGSGTEFTLTISSLQPEDFATYYCLQYNSYPWTFGQGTKVEIKR |  | ~6 |
